Test results reported in article PMC7337065.
Where “and” joins values, the source holds several entries; their conditions need not be identical. Equal values may be shown once.

Experiments:
[1] = target: Recombinant human transferrin (human) (UniProt P02787); assay: SEC-MALS; Superdex 200 Increase 10/30 GL, 4 °C, mobile phase 38 mM NaH2PO4, 12 mM Na2HPO4, 150 mM NaCl, 200 ppm NaN3, pH 7.4; samples from all tested formulation conditions
[2] = tested on: P02787; assay: SAXS; concentration series at pH 4.0-8.0 and with NaCl or arginine at pH 5.0/6.5; estimated MW from scattering; volume fractions from OLIGOMER with monomer crystal structures and a SASREFMX dimer model; settings: other: SAXS

Recombinant human transferrin, sequence (P02787 20-698): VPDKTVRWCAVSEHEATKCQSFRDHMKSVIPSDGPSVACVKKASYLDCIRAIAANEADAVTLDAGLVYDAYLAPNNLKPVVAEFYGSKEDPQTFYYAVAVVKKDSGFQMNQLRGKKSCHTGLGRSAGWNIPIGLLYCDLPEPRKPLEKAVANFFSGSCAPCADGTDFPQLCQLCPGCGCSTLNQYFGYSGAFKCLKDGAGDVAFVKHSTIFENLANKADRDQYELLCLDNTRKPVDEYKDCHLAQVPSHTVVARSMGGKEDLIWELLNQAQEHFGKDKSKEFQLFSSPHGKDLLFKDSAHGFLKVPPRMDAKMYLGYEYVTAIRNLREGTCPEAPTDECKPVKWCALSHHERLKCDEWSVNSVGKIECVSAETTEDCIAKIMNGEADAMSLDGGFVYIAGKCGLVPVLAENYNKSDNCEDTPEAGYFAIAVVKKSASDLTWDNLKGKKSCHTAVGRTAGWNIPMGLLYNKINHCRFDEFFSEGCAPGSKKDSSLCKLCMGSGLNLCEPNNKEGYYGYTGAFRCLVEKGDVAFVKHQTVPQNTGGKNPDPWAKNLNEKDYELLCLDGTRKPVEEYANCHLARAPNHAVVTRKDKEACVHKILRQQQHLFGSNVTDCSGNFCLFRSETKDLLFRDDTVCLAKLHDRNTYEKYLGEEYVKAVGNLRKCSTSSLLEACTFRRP

percent dimer [1] | percent trimer [1] | stoichiometry N [1] | Substance | volume fraction of dimer + aggregates (NaCl) [2] | volume fraction of dimer + aggregates (acetate) [2] | volume fraction of dimer + aggregates (arginine) [2] | volume fraction of dimer + aggregates (histidine) [2]
12% | 2% | 2 and 3 | Recombinant human transferrin (from UniProt P02787 20-698) (natural protein) | – | – | – | –
– | – | – | Recombinant human transferrin | 0.5 | 0.2 | 0.4 | 0.2
